Results taken from the nanobody polyreactivity screen of Harvey et al. (2022).

Assay: yeast display, Sf9 membrane polyspecificity reagent, FACS + sequencing; frameworks hold sequencing errors
Outline: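 In a synthetic yeast display library (Saccharomyces cerevisiae BJ5465), nanobody expression was induced with galactose for 36–48 hours. FACS gates were set low and high (top ~1%) using anti-HA fluorescence for expression and streptavidin fluorescence for binding of the Sf9 membrane reagent. Each polyreactivity label is drawn from the gate of origin.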

QVQLVESGGGLVQAGGSLRLSCAASGFTFPVYTMGWYSQAPGKERELVAAISTAGAGTYYADSVKGRFTISRDNAKNTVYLQMNSLKPEDTAVYYCAAYKRGRPEMDYWGQGTQVTVSS
polyreactivity (PSR sort gate): high polyreactivity

QVQLVESGGGLVQAGGSLRLSCAASGSIFTRNAMGWYRQAPGKERELVAAISRGGGTNYADSVKGRFTISRDNAKNTVYLQMNSLKPEDTAVYYCAKGWLPNGIPTYFRPYGLDYWGQGTQVTVSS
polyreactivity (PSR sort gate): high polyreactivity

QVHLVESGGCLVQAGGSLRLSCAASGSTFPSYAMGWYRQAPGKERELVAAINSGGGTNYADSVKGRFTITRDNAKNTVYLQLNILKPEDSAVYYGAADVWKLYDYWGQGTQVTVSS
polyreactivity (PSR sort gate): low polyreactivity

QVHLVESGGGLVQAGGSLRLICAASVFNLDWYVMGWNRQAPGKERQLVAAISSSGGRTYNADSVKGRFTISRDKAKNTVYLQMNSLKPEDTAVYYCAARNKYGGYPYGYDYWGQGTQVTVSS
polyreactivity (PSR sort gate): high polyreactivity

QVQLVESGGGLVQAGGSLRLSCAATGRILYYYAMVWYRQAPGKEREVVAASTSGGSTYADSVKGRFTISRDNAKNTVYLQMNSQKPEDTAVYYCNADSTVYDTEYAYWGQGTQVTVSS
polyreactivity (PSR sort gate): low polyreactivity

QDHLVESGGGLVHAGGRLRLSCAASVRIFTAYAMGWYRQAPGTERELVPAISSGDSTYSADSVKGRFTISRDNAKNSVYLQMNSLKPVVTAVYSCATGVYPDFEYVSWGQGTQVTGSS
polyreactivity (PSR sort gate): low polyreactivity

QVQLVESRGGLLQAGGSLRLSCAASGSIFKYYSMGSYRQAPGKERELVAAIRWSGGTTYYADSVKGRFTISRDNAKNTVYLQMNSLKPEDTAVYYCAAEYFNQNTREGYDYWGQGSQVTVSS
polyreactivity (PSR sort gate): low polyreactivity

QVQRVETAGRLVQARGSLRLSCAPSGIIFKRNAIGWYRQAPGKEREFVAAISSSGDTTYYADSVKGRFTISRDNAKNTVYLQMNSLKPEDTAVYYCAKPIRTSRARGMYYWGQGTEVTVSS
polyreactivity (PSR sort gate): high polyreactivity

QGQLVVSGGGLVQAGGSLRLSCAASGRISSSYAMGWYRQAPGKEREFVAAIRSSGGSTYYADSVKGRFTISRDYAKNTVYLQMISLKPVDTAVYYCNKVGFYQSRKYYYWGQATQVTVSS
polyreactivity (PSR sort gate): high polyreactivity

QVQLEESGGGLVQAGGSLRISCAASGRTLRSYAMGWYRQAPGKERELVAAISWNGGDTYADSVKGRFTISRDNAKNTVYLQMNSLKPEDTAVYYCAASRWFSRYWYGIDKYNYWGQGTQVTVSS
polyreactivity (PSR sort gate): high polyreactivity

QVQLVESGGGLVQAGGSLRLSCAASGFIFRYYAMGWYRQAPGKERELVATISYRGASTYYADSVKGRFTISRDNAKNTVYLQMNSLKPEDTAVYYCAADWGWYWYIYDYWGQGTQVTVSS
polyreactivity (PSR sort gate): low polyreactivity

QVQLVESGGGLVQAGGSLRLSCAASGSIFKYYTMGWYRQAPGKERELVAAISWRGGSTYYADSVKGRFTISRDNAKNTVYLQMNSLKPEDTAVYYCAAKSYYNYYYWGQGTQVTVSS
polyreactivity (PSR sort gate): high polyreactivity

QVQLVESGGGLVQAGGSLRLSCAASGGTFFYNAMGWYRQAPGKERELVAAINGGTSTNYADSVKGRFTISRDNAKNTVYLQMNSLKPEDTAVYYCAAVYRRLGRYDWYDYWGQGTQVTVSS
polyreactivity (PSR sort gate): low polyreactivity

QVQLVESGGGLVQAGGSLRLSCAASGGIFGRNAMGWYRQAPGKEMELVAAISSSGGTTYYADSVKGRFTISRDYAKNTVYLQMNSMKPEDTAVYYCNAAYYWRSFHDDYFGQGTQVTVSS
polyreactivity (PSR sort gate): high polyreactivity

QVQLVESGGGLVQAGGSLRLSCAASGITFGDYAMGWDRQAPGKERELVAAISTSGVRTYYADSVKGRFTISRDNAKNTVYLQMNSLKPEDTAVYYCNARDYSGFQTGASAAFDYWGQGTQVTVSS
polyreactivity (PSR sort gate): low polyreactivity

KVQLVESGGGLVQAGGSLRLSCAASGIIFFPYAMAWYRQAPGKERELVASINISDSSTYYADSVKGRFTISRDNAKKTVYLQMNSLKPEDTAVYYGAADNRGDSWYWDGYWGQGTQVTVSS
polyreactivity (PSR sort gate): low polyreactivity

QVQLVESGGGLVQAGGSLRLSCAASGRIFSVNAMGWYRQAPGKERELVAAITTRGGTTYYADSVKGRFTISRDNAKNTVSLQMNSLKPEDTAVYYCAAESSWYVYWEWAHDYWGQGTQVTVSS
polyreactivity (PSR sort gate): low polyreactivity

QVQLVESGGGLVQAGGSLRLSCAASGSIFGSYTMGWYRQAPGKERELVAVINWSGDRTYYADSVKGRFTISRDNAKNNVYLHMNSLKPEDTAVYYCAARERAGYSGIRYNYWGQGSQVTVSS
polyreactivity (PSR sort gate): low polyreactivity

QVHLVESVVCLVQAGGSLALSCASYGSIFRYYALGWYIQGTGKESELVAGITWGCRRTFYADSEKGRFTISRHNAKNTFYIQMNILKPEDTAVCYCAPRWFWKAYRFYYWGQGTQLTVSS
polyreactivity (PSR sort gate): high polyreactivity

QVQLVEAGGGLVQAGGSLRLSCAASGRIFVPYAMGWYRQAPGKEWELVAGISWSGGSTYYADSVKGRFTISRDNAKNTVYLQMNNLKPEDTPVYYCAAAKRRRPFDYWGQGTQVTVSS
polyreactivity (PSR sort gate): high polyreactivity

QVQHVESGGGLVQAGGSLRLSCAASGRIFVYYAMGWYRQEPGKERELVATISSGGSTYYADSVKGRFTISRDNAKNTVYLHMNSLKPEDTAVYYCNARDWYLWSTYRSWYDYWGEGTQVTVSS
polyreactivity (PSR sort gate): low polyreactivity

QVQLVESGGGLVQAGGSLRLSCAASGRIFGGYTMGWYRQAPGKEREFVATISRSSGSTYYADSVKGRFTISRDNAKNTVYLQMNSLKPEDTAVYYCAAVYLYATGYDYWGQGTQVTVSS
polyreactivity (PSR sort gate): high polyreactivity

QVQLVESGVGLVQAGGSLRLSCAASGITFREYAMGWYRQAPGKERELVAAIRYSGGSTYYADSVKGRFTISRDNAMNTVYLQMNSLKPEDTAVYYCAADPRRTLSPQLSDYWGLGTQVTVSS
polyreactivity (PSR sort gate): high polyreactivity

QVQLVESGGGLVQAGGSLRLICAASGSTFIINAMGWYRQAPGKERELVARITQRGTSTFYADSVKGRFTISRDNAKNTVYLQMNSLKPDDTAVYYCAGRGSNSLGNKYDYWGQGTQVTVSS
polyreactivity (PSR sort gate): high polyreactivity

QVQLVESGGGLFQAGGSLRIICAASGSIFGAYAMGWYRQAPGKERELVAGIRRAGDSTYYADSVKGRFTISRDYAKNTVYLLMNCMKPEDTAVYYCAAYLYLEYYYRGQGTQVTVSS
polyreactivity (PSR sort gate): low polyreactivity

QVQLVESGGGLVQAGGSLRLSCAASGRTSWYTMGWYRQAPGKERELVAAISGSGGITYYADSVKGRFTISRDNAKNTVYLQMNSLKPEDTAVYYCNALRPRSLTEMYYWGQGTQVTVSP
polyreactivity (PSR sort gate): high polyreactivity

QVQLVESGGGLVQAGGSLRLSCAASGSTFTFNAMGWYRQAPGKERELVAVISSGGSTYYADSVKGRFTISRDNAKNTVYLQMNSLKPEDTAVYYCNKVYGYFGQYYLRYNYWGQGTQVTVSS
polyreactivity (PSR sort gate): low polyreactivity

QVQLVESGGGLVQAGGSLRLSCAASGSIFDYYTMGWYRQAPGKEREWVAAITRSGGRTYYADSVKGRFTISRDNAKNTVYLQMNSLKPEDTAVYYCATRAVSRFGNGPYDYWGQGTQVTVSS
polyreactivity (PSR sort gate): high polyreactivity

QVQLVESGGGLVQAGGSLRLSCAASGSTFSYYALGWYRQAPGKEREFVAAISRSGGRTYYADSVKGRFTFSRDNAKNTVYLQMNSLKPEDTAVYYCATVYYYDFSRTHPWPGDYWGQGTQVTVSS
polyreactivity (PSR sort gate): high polyreactivity

QVQLVESGGGIVQAGGSLLLSCAASGRIFEKYALGWYRQAPGKDRELVAAISYSGGSTYYADSVKGSFTSSRDKAKNTVYFQMNSLKPEDTAVYYCARYSRTQAYDYWGQGTQVTVSS
polyreactivity (PSR sort gate): high polyreactivity

QVQLVESGGGLVQAGGSLRLSCAASGSTFSSNVMGWYRQAPGKERELVAAITGSGSRTYYADSVKGRFTISRDNAKNTVYLQMNSLKPEDTAVYYCNTKGRSRETYGYDYWGQGTQVTVSS
polyreactivity (PSR sort gate): high polyreactivity

QVQLVESGGGLVQAGGSLRLSCAASGSIFARNAMGWYRQAPGKERELVAAITWGGGITYYADSVKGRFTISRDNAKNTVYLQMNSLKPEDTAVYYCATDGYSYFTDRLDYWGQGTQVTVSS
polyreactivity (PSR sort gate): low polyreactivity
